Consider 20 substances from the Human Domainome abundance scans (Beltran et al. 2025).

± gives the uncertainty stated by the source.

The data set can be described thus: abundance fitness (aPCA) (normalised: wild type 0, dead -1); higher = more abundant; growth selection in yeast, the domain comes from the species named. The following applies: Homo sapiens.
In turn, “Homeobox expressed in ES cells 1 A114T, Q9UBX0” registered an abundance fitness of 0.493 ± 0.057.

As for “Homeobox expressed in ES cells 1 C131H, Q9UBX0”, the abundance fitness came to 0.419 ± 0.15. Substance “Homeobox expressed in ES cells 1 D136F, Q9UBX0” returned an abundance fitness of 0.211 ± 0.24.

On to “Homeobox expressed in ES cells 1 D140E, Q9UBX0”, for which the abundance fitness was -0.047 ± 0.07. Substance “Homeobox expressed in ES cells 1 D150A, Q9UBX0” displayed an abundance fitness of 0.089 ± 0.12.

For the substance “Homeobox expressed in ES cells 1 G134D, Q9UBX0”, the abundance fitness was -0.02 ± 0.17. With “Homeobox expressed in ES cells 1 I120L, Q9UBX0”, the abundance fitness was -0.192 ± 0.15. The same measure for “Homeobox expressed in ES cells 1 I135V, Q9UBX0”: -0.069 ± 0.073; for “Homeobox expressed in ES cells 1 I152V, Q9UBX0”: -0.315 ± 0.12.

For “Homeobox expressed in ES cells 1 I154V, Q9UBX0”, the abundance fitness was -0.028 ± 0.12. On to “Homeobox expressed in ES cells 1 K164W, Q9UBX0”, for which the abundance fitness was -0.547 ± 0.16.

For “Homeobox expressed in ES cells 1 N118Q, Q9UBX0”, the abundance fitness is -0.35 ± 0.35. In the case of “Homeobox expressed in ES cells 1 N125A, Q9UBX0”, the abundance fitness was -0.36 ± 0.12.

For “Homeobox expressed in ES cells 1 N130T, Q9UBX0”, the abundance fitness is -0.144 ± 0.066.

“Homeobox expressed in ES cells 1 P111N, Q9UBX0”: the abundance fitness amounted to 0.704 ± 0.15. With “Homeobox expressed in ES cells 1 Q117L, Q9UBX0”, the abundance fitness was -0.548 ± 0.16.

In the case of “Homeobox expressed in ES cells 1 Q143M, Q9UBX0”, the abundance fitness is -0.011 ± 0.19. With “Homeobox expressed in ES cells 1 R128A, Q9UBX0”, the abundance fitness is -0.277 ± 0.16. Turning to “Homeobox expressed in ES cells 1 V122E, Q9UBX0”, the abundance fitness amounted to 0.12 ± 0.15. Regarding “Homeobox expressed in ES cells 1 V129Q, Q9UBX0”, the abundance fitness stood at 0.143 ± 0.25.
